Reference: the supplement of paper PMC7125110
± gives the standard error. This sample holds only a part of the variants without activity.

B1: glmS ribozyme (parent)
chain: AUAAAAGCGCCAGAACUACAGAAAUGUAGUUGACGAGGAGGAGGUUUAUCGAAUUUUCGGCGGAUGCCUCCAAA

What was measured:
Conditions in all cases: with glucosamine-6-phosphate
glucosamine-6-phosphate [1] = variants of: B1; experiment: self-cleavage kobs at 40 uM GlcN6P; higher = faster cleavage; RNA array
In short: (§1)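 Ribozyme variants carrying barcodes were transcribed in situ on sequenced MiSeq chips by E. coli RNA polymerase and tracked at 37 °C with a hybridised Cy3 probe. They were exposed to 40 μM to 10 mM glucosamine-6-phosphate in HEPES/KCl/Mg(OAc)2 buffer. kobs came from exponential decay fits of normalised per-tile medians, and kcat and KM from weighted Michaelis–Menten fits.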

glucosamine-6-phosphate [2] = variants of: B1; experiment: self-cleavage kobs at 10000 uM GlcN6P; higher = faster cleavage; RNA array
In short: as §1

glucosamine-6-phosphate [3] = variants of: B1; experiment: self-cleavage kobs at 640 uM GlcN6P; higher = faster cleavage; RNA array
In short: as §1

glucosamine-6-phosphate [4] = variants of: B1; experiment: self-cleavage kobs at 160 uM GlcN6P; higher = faster cleavage; RNA array
In short: as §1

glucosamine-6-phosphate [5] = variants of: B1; experiment: self-cleavage kobs at 2500 uM GlcN6P; higher = faster cleavage; RNA array
In short: as §1

Variant	self-cleavage kobs at 40 uM GlcN6P (glucosamine-6-phosphate [1]) [s⁻¹]	self-cleavage kobs at 10000 uM GlcN6P (glucosamine-6-phosphate [2]) [s⁻¹]	self-cleavage kobs at 640 uM GlcN6P (glucosamine-6-phosphate [3]) [s⁻¹]	self-cleavage kobs at 160 uM GlcN6P (glucosamine-6-phosphate [4]) [s⁻¹]	self-cleavage kobs at 2500 uM GlcN6P (glucosamine-6-phosphate [5]) [s⁻¹]
AUAAAAGCGCCAGAACUACAGAAAUGUAGUUGUCGAGUAGGUGGUUUAUCGAAUUCUCGGCGUAUGCCUCCAAA [A33U G38U A42U U56C G63U]	< 1e-05	< 1e-05			
AUAAAAGCGCCAGAACUACAGAAAUGUAGUUGGCGAGGAGGAGGUUUAUCGAAUUUUCGCUGGAUGCCUCCAAA [A33G G60C C61U]	< 1e-05	< 1e-05	< 1e-05		
AUAAAAGCGCCAGAACUACAGAAAUGUAGUUGUCGAGGAAGCGGUUUAUCGAAUUUUCGGCGGAUGCCUCCAAA [A33U G40A A42C]	< 1e-05	< 1e-05	< 1e-05	< 1e-05	< 1e-05
AUAAAAGCGCCAGAACUACAGAAAUGUAGUUGUAGAGGAGGAGGUUUAUCGAAUUUUCGGCGGAUGCCUCCAAA [A33U C34A]	< 1e-05	< 1e-05	< 1e-05	< 1e-05	< 1e-05
AUAAAAGCGCCAGAACUACAGAAAUGUAGUUGUCGACGAGGAGGUUUAUCGAAUUUUCGGCGGAUGCCUCCAAA [A33U G37C]	< 1e-05	< 1e-05		< 1e-05	
AUAAAAGCGCCAGAACUACAGAAAUGUAGUUGGCGAGGAGGAGGUUUAUCGAAUUUUCGGGGGCUGCCUCCAAA [A33G C61G A64C]	< 1e-05	< 1e-05			
AUAAAAGCGCCAGAACUACAGAAAUGUAGUUGGCAAGGAGGAGGUUAAUCGAAUUUUCGGCGGAUGUCUGCAAA [A33G G35A U47A C67U C70G]	5.2e-05 ± 2.3e-05	6.3e-05 ± 1.7e-05			
AUAAAAGCGCCAGAACUACAGAAAUGUAGUUGGCGAGGAGGAGGUUUAUCGAAGUUUCGGCGGAGGCCUCCAAA [A33G U54G U65G]	< 1e-05	< 1e-05			
AUAAAAGCGCCAGAACUACAGAAAUGUAGUUGGCCAGGAGGAGGUUUAUCGAAUUUUCGGCGGAUGCCUGCAAA [A33G G35C C70G]	0.000358 ± 8.4e-05	0.000163 ± 4.5e-05			
AUAAAAGCGCCAGAACUACAGAAAUGUAGUUGGCGAGGAGGAGGUGUAUCGAAUUUUCGGCCGAUGCCUCCAAA [A33G U46G G62C]	< 1e-05		< 1e-05		< 1e-05
AUAAAAGCGCCAGAACUACAGAAAUGUAGUUGGCGAGGAGGAGGUUUAUCGAAUUUUCGGCCGAUGCCUCCAAA [A33G G62C]	< 1e-05	< 1e-05	< 1e-05		< 1e-05
AUAAAAGCGCCAGAACUACAGAAAUGUAGUUGGCGAGGAGGAGGUUUAUCGAAUUUUCGGCAGAUGCCUCCAAA [A33G G62A]	< 1e-05	< 1e-05			
AUAAAAGCGCCAGAACUACAGAAAUGUAGUUGGCGAGGAGCAGGUUCAUCGAAUUUUCGGCGGAUGCCUCCAAA [A33G G41C U47C]	< 1e-05		< 1e-05		< 1e-05
AUAAAAGCGCCAGAACUACAGAAAUGUAGUUGGCGAGGAGGAGGUUUAUCGAAUUUUCGGCGGAAGCCUCCAAA [A33G U65A]	< 1e-05	< 1e-05	< 1e-05		< 1e-05
AUAAAAGCGCCAGAACUACAGAAAUGUAGUUGGCGAGGAGGAGGUUUAUCGAAUUUUCGGCGAAUGCCUCCAAA [A33G G63A]	< 1e-05	< 1e-05		< 1e-05	
AUAAAAGCGCCAGAACUACAGAAAUGUAGUUGGCGAGGAGGAGGUUUAUCGAAUUUUCGGCGGAUGCUUCCAAA [A33G C68U]	< 1e-05	< 1e-05			
AUAAAAGCGCCAGAACUACAGAAAUGUAGUUGGCGAGGAGGAGGUUUAUCGAAUUGUCGGCGGAUGCCUCCAAA [A33G U56G]	< 1e-05	< 1e-05	< 1e-05		
AUAAAAGCGCCAGAACUACAGAAAUGUAGUUGUCGAGGAGGAGGUUUCUCGAAUUUUCGGCGGAUGCCUCCAAA [A33U A48C]	< 1e-05	< 1e-05	< 1e-05	< 1e-05	< 1e-05
AUAAAAGCGCCAGAACUACAGAAAUGUAGUUGUCGAGAAGCAGGUUUAUCGAAGUUUCGGCGGAUGCCUCCAAA [A33U G38A G41C U54G]	< 1e-05				
AUAAAAGCGCCAGAACUACAGAAAUGUAGUUGGCGAGGAGGAGGAUUAUCGAAUUUUCGGCGGAUGCCUCAAAA [A33G U45A C71A]	< 1e-05	< 1e-05			
AUAAAAGCGCCAGAACUACAGAAAUGUAGUUGUCGAGCACGAGGUUUAUCGAAUUUUCGGCGGAAGCCUGCAAA [A33U G38C G40C U65A C70G]	< 1e-05	< 1e-05			< 1e-05
AUAAAAGCGCCAGAACUACAGAAAUGUAGUUGUCGAGGAGGAGGUUUAUCGAAUUUUUGGCGGAUGCCUCAAAA [A33U C58U C71A]	< 1e-05		< 1e-05		< 1e-05
AUAAAAGCGCCAGAACUACAGAAAUGUAGUUGUCGAGGAGGAGGUUUAUGGAAUUUUCGGAGGAUGCCUCCAAA [A33U C50G C61A]	0.000105 ± 2e-05	0.000139 ± 2.7e-05			
AUAAAAGCGCCAGAACUACAGAAAUGUAGUUGGCGAGGAGGAGGUUGAUCGAAUUUUCGGCGGAUGCCUCCAAA [A33G U47G]	< 1e-05	< 1e-05	< 1e-05	< 1e-05	
AUAAAAGCGCCAGAACUACAGAAAUGUAGUUGGCGAGGAGGAGGUUUAUUGAAUUUUCGGCGGAUGCCUCCAAA [A33G C50U]	< 1e-05	< 1e-05	< 1e-05		
AUAAAAGCGCCAGAACUACAGAAAUGUAGUUGUCGAGGAGGAGGUUUAUCGAAUUUUCGGCGGAUGGCUUCAAA [A33U C67G C70U]	< 1e-05				
